Experimental data published in patent publication US20050089937A1 (H LUNDBECK A S, published 2005).
Non-standard residues stand in square brackets, D forms with d. No end group written: not given here. *: point of attachment. NMeF = CN[C@@H](Cc1ccccc1)C(=O)O; 125I = [125I]*

Experiments:
[1] = molecular target: rat spinal cord membrane receptor; experiment: competition with [125I]D-Tyr-NPFF, rat spinal cord membranes
[2] = molecular target: T1, rat neuropeptide FF receptor (NPFF1) (rat, UniProt Q9EP86 1-432); experiment: competition with [125I]D-Tyr-NPFF, membranes of COS-7 cells with rat NPFF1
Text: (§1) Cos-7 cells transiently expressing the gene encoding the novel rat NPFF1 receptor were used for pharmacological evaluation.

[3] = molecular target: rat neuropeptide FF receptor (NPFF1) (rat) (UniProt Q9EP86); experiment: as above
[4] = molecular target: T1, rat neuropeptide FF receptor (NPFF1); experiment: radioligand saturation binding, membranes of Cos-7 cells transiently expressing rat NPFF1
Text: as §1

[5] = molecular target: T2, rat neuropeptide FF receptor (NPFF2) (rat, UniProt Q9EQD2 1-417); experiment: radioligand saturation binding, Cos-7 cells expressing rat NPFF2
T2 construct: Full-length cloned receptor; Also the native receptor in rat brain sections (autoradiography); also called rat NPFF2
Text: (§2) Additional pharmacological evaluation was done using 293 human embryonic kidney cells (HEK-293 cells) transiently expressing the genes encoding the human NPFF1, NPFF2, and rat NPFF1 receptors, as well as Cos-7 cells expressing the rat NPFF2 receptors.

[6] = molecular target: T2, rat neuropeptide FF receptor (NPFF2); experiment: radioligand binding to cloned rat NPFF2, as told in the discussion
[7] = molecular target: T3, human NPFF2b (hNPFF2) receptor (human, UniProt Q9Y5X5 103-522); experiment: radioligand saturation binding, transiently transfected HEK-293 cells
T3 construct: also called NPFF-like; hNPFF-like

[8] = molecular target: T4, human neuropeptide FF receptor (NPFF1) (human, UniProt Q9GZQ6 1-430); experiment: as above
T4 construct: also called human NPFF1; hNPFF1

[9] = molecular target: T1, rat neuropeptide FF receptor (NPFF1); experiment: as above
[10] = molecular target: T2, rat neuropeptide FF receptor (NPFF2); experiment: competition binding, HEK-293 cells with the cloned receptor
[11] = molecular target: T1, rat neuropeptide FF receptor (NPFF1); experiment: cell-based or functional assay
[12] = molecular target: T1, rat neuropeptide FF receptor (NPFF1); experiment: cell-based or functional assay; remark: listed apart in the source
[13] = molecular target: T5, rat neuropeptide FF receptor (NPFF1) (rat), Q9EP86; experiment: competition with [125I]D-Tyr-NPFF, membranes of COS-7 cells with rat NPFF1
T5 chain: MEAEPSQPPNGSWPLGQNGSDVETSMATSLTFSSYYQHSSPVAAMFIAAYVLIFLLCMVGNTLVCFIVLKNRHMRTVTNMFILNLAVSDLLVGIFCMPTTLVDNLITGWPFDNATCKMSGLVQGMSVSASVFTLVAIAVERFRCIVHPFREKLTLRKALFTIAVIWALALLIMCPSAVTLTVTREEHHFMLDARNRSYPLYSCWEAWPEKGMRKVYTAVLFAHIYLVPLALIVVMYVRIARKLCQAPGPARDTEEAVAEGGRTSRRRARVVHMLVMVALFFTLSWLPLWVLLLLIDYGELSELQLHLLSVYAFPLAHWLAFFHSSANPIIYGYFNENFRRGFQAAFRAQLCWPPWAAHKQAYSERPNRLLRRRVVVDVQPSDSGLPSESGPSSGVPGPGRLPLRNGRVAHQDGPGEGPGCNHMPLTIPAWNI

[14] = molecular target: T2, rat neuropeptide FF receptor (NPFF2); experiment: competition with [125I]D-Tyr-NPFF, cloned receptor (head: HEK-293; text: Cos-7)
Text: as §2

[15] = molecular target: T3, human NPFF2b (hNPFF2) receptor; experiment: competition with [125I]D-Tyr-NPFF, HEK-293 cells with the cloned receptor
Text: as §2

[16] = molecular target: T4, human neuropeptide FF receptor (NPFF1); experiment: as above
Text: as §2

[17] = molecular target: T1, rat neuropeptide FF receptor (NPFF1); experiment: as above
Text: as §2

[18] = molecular target: T2, rat neuropeptide FF receptor (NPFF2); experiment: competition with [125I]D-Tyr-NPFF; rat NPFF2 against rat NPFF1
Text: as §2

[19] = molecular target: T3, human NPFF2b (hNPFF2) receptor; experiment: cell-based or functional assay
[20] = molecular target: T4, human neuropeptide FF receptor (NPFF1); experiment: cell-based or functional assay
[21] = molecular target: T3, human NPFF2b (hNPFF2) receptor; experiment: competition with [125I]D-Tyr-NPFF; human NPFF2 against human NPFF1
Text: as §2

T4 sequence (Q9GZQ6 whole entry): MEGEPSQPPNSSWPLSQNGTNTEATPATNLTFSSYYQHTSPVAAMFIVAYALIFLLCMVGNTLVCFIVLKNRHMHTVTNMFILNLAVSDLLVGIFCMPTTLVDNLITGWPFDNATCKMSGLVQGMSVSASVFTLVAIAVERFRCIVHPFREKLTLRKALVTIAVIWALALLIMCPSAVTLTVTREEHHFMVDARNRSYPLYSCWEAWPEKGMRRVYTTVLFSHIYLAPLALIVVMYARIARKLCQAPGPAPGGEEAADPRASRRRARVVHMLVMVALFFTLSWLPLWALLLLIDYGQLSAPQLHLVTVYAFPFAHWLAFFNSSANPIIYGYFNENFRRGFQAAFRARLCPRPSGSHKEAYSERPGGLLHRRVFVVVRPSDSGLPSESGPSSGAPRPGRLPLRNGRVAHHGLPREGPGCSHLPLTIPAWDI
T3 sequence (Q9Y5X5 103-522): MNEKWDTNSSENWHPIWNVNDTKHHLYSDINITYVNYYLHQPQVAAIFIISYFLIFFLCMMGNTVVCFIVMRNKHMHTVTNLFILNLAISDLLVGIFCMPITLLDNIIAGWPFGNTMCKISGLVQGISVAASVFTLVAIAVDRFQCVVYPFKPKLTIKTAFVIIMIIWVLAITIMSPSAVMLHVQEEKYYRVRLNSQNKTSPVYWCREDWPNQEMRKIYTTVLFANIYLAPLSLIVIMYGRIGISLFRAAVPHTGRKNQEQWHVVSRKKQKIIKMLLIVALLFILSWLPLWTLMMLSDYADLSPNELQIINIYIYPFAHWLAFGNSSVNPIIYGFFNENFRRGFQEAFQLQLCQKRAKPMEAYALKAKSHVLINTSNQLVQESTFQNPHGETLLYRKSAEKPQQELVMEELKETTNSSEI
T2 sequence (Q9EQD2 whole entry): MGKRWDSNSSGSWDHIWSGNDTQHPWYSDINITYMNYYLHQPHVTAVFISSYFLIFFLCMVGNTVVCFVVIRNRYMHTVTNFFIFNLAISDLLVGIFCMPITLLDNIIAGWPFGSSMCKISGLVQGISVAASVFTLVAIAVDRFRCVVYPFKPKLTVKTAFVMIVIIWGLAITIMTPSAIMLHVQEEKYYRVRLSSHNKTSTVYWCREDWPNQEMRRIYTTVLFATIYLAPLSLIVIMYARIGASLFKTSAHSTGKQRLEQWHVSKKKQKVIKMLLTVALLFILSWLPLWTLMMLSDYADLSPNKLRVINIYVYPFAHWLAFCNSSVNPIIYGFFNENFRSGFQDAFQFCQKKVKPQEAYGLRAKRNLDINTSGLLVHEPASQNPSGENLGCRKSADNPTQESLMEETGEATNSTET

“Dynorphin A1-13 (from UniProt P01213 207-219) (peptide)” showed a pKi [1] of 5.7.

In the case of CGRP (peptide), the pKi [2] is reported as 5 and the pKi [1] is reported as 5.

With (2D)Y8Fa (peptide) the pKi [3] was 8.33 and the pKi [1] was 9.21.

For (2DME)Y8Fa (peptide), the pKi [3] was 9.2 and the pKi [1] was 9.57.

In the case of desamino-nor-Y8Ra (peptide), the pKi [2] is reported as 7.27 and the pKi [1] is reported as 7.51.

(3D)Y8Fa (peptide) gave a pKi [3] of 8.62 and a pKi [1] of 9.12.

In the case of Neuropeptide F, the pKi [2] is reported as 6.11 and the pKi [1] is reported as 8.1.

In the case of Neuropeptide FF (NPFF), the pKi [1] is reported as 9.05.

Work on DYMGWMDF (peptide, UniProt P06307 96-103, looked up, species assumed, ends and bridges not checked) [CCK8] yielded a pKi [2] of 5 and a pKi [1] of 5.

In the case of YGGFMRF-OH [Met5-Arg6-Phe7-Enk-OH], the pKi [2] is reported as 5 and the pKi [1] is reported as 5.

Work on [dY](125I)L[NMeF]QPQRF-NH2 [[^125I][D-Tyr^1-(NMe)Phe^3]NPFF] yielded a Kd [4] of 0.335 nM, a Kd [5] of 0.17 nM and a Kd [6] of 0.22 nM. For the same molecule, the Kd [7] was 0.17 nM, the Kd [8] was 0.46 nM and the Kd [9] was 0.65 nM.

B1: Neuropeptide FF (NPFF) (peptide)
peptide: FLFQPQRF-NH2
notes: bought from Bachem; also called F-8-Fa; F8Famide
With B1 the pKi [10] was 8.2, the “EC50, extracellular acidification rate (microphysiometry), CHO cells with NPFF1 alone” value [11] was 19.3 nM and the “EC50, extracellular acidification rate (microphysiometry), CHO cells with NPFF1 and the Gz/Gq chimera” value [11] was 27.7 nM. The “EC50, total inositol phosphate release, Cos-7 cells with NPFF1” value [11] was 23 nM and the “EC50, functional activity in COS-7 cells” value [12] was 9.3 nM.

For YPLG (modifications not checked) [Tyr-MIF-1], the pKi [13] was 5 and the pKi [1] was 5.

B2: AF-2 (peptide)
peptide: H-KHQYLRF-NH2
notes: Printed as H-Lys-His-Gln-Tyr-Leu-Arg-Phe-NH2
Work on B2 yielded a pKi [2] of 7.02 and a pKi [1] of 7.96.

AGEGLSSPFWSLAAPQRF-NH2 (also called NPAF) [rat A-18-F-amide] showed a pKi [14] of 8.2, a pKi [2] of 7.5 and a pKi [15] of 8.9. For the same molecule, the pKi [16] was 7.2, the pKi [17] was 7.5 and the pKi [1] was 9. For the same molecule, the “EC50, extracellular acidification rate (microphysiometry), CHO cells with NPFF1 alone” value [11] was 150 nM.

B3: [Y^9]A18Fa (peptide)
peptide: AGEGLSSPYWSLAAPQRF-NH2
notes: also called [Y^9]A18Famide; [tyr^9]A-18-F-amide
In the case of B3, the pKi [2] is reported as 7.56 and the pKi [1] is reported as 8.5.

PDVDHVFLRF-NH2 (also called SchistFLRF) [Schisto(FLRFNH2)] gave a pKi [2] of 5.96 and a pKi [1] of 6.39.

For APSEPHHPGDQATQDQLAQYYSDLYQYITFVTRPRF (not fully specified; ends and bridges not checked, also called fPP) [Frog pancreatic polypeptide (frog PP) (Rana Temporaria)], the pKi [14] was 7.3, the “fold greater affinity than for the NPFF1 receptor” value [18] was 31 fold and the “% of NPPF Response, intracellular calcium mobilization” value [19] was 78 % of NPPF Response. For the same molecule, the “pEC50, intracellular calcium mobilization” value [19] was 6.7, the “% of NPPF Response, intracellular calcium mobilization” value [20] was 0 % of NPPF Response and the “pEC50, intracellular calcium mobilization” value [20] was < 5. The pKi [2] was 5.5, the “fold greater affinity than for the NPFF1 receptor” value [21] was 77 fold and the pKi [15] was 7.4. The pKi [16] was 5.9, the pKi [17] was 5.4 and the pKi [1] was 9.12.

Work on APLEPVYPGDNATPEQMAQYAADLRRYINMLTRPRY (peptide, UniProt P01298 30-65, looked up) [hPP] yielded a pKi [2] of 5 and a pKi [1] of 5.

FMRF (D-Met in place of L-Met, C-terminal amide, also called the D-Met analog) [D-Met-FMRF amide] gave a pKi [14] of 6.2, a pKi [15] of 6.4 and a pKi [16] of 6.6. The pKi [17] was 6.2.

Work on MPRVRSLFQEQEEPEPGMEEAGEMEQKQLQ (peptide, UniProt Q13519 98-127, looked up, species assumed, Nocistatin) [nocistatin] yielded a pKi [2] of 5 and a pKi [1] of 5.

Molecule YLFQPQRF-NH2 (also called Y8Famide; Y-8-F-amide) [Y8Fa] has a pKi [2] of 8.38 and a pKi [1] of 9.19.

FMRF-NH2 [FMRF amide] was tested, and the pKi [14] was 8, the pKi [2] was 8.48 and the pKi [15] was 8.4. It also gave a pKi [16] of 9.1, a pKi [17] of 8.7 and a pKi [1] of 8.49.

PMRF-NH2 [PMRFa] was tested, and the pKi [2] was 8.55 and the pKi [1] was 9.37.

With FTRF (ends and bridges not checked) the pKi [2] was 7.87 and the pKi [1] was 8.16.

B4: PQRF-amide (peptide)
peptide: PQRF-NH2
notes: C-terminal tetrapeptide of NPFF; also called PGRF-amide [sic]
B4 was tested, and the pKi [14] was 7.6, the “% of NPPF Response, intracellular calcium mobilization” value [19] was 94 % of NPPF Response and the “pEC50, intracellular calcium mobilization” value [19] was 7. The “% of NPPF Response, intracellular calcium mobilization” value [20] was 93 % of NPPF Response, the “pEC50, intracellular calcium mobilization” value [20] was 6.7 and the pKi [2] was 8.18. For the same molecule, the pKi [15] was 7.6, the pKi [16] was 7.4 and the pKi [17] was 7.6.

Molecule FFRF (ends and bridges not checked) has a pKi [2] of 8 and a pKi [1] of 8.98.

B5: Met5-Arg6-Phe7-Enk-NH2 (peptide)
peptide: YGGFMRF-NH2
notes: also called Met-Enk-NH2; Met^5, Arg^6, Phe^7-NH2 enkephalinamide
In the case of B5, the pKi [2] is reported as 7.35 and the pKi [1] is reported as 8.4.

B6: AF-1 (peptide)
peptide: H-KNQFIRF-NH2
notes: Printed as H2N-Lys-Asn-Gln-Phe-Ile-Arg-Phe-NH2; also called FMRF-like peptide
B6 was tested, and the pKi [2] was 6.63 and the pKi [1] was 7.56.

In the case of GWTLNSAGYLLGPHAVGNHRSFSDKNGLTS (peptide, UniProt P22466 33-62, looked up, species assumed, Galanin) [galanin], the pKi [2] is reported as 5 and the pKi [1] is reported as 5.

B7: (D-Tyr^1-(NMe)Phe^3)NPFF (peptide)
peptide: [dY]L[NMeF]QPQRF-NH2
modifications: N-terminus assumed
SMILES: CC(C)C[C@H](NC(=O)[C@H](N)Cc1ccc(O)cc1)C(=O)N(C)[C@@H](Cc1ccccc1)C(=O)N[C@@H](CCC(N)=O)C(=O)N1CCC[C@H]1C(=O)N[C@@H](CCC(N)=O)C(=O)N[C@@H](CCCNC(=N)N)C(=O)N[C@@H](Cc1ccccc1)C(N)=O
notes: also called D-Tyr-NPFF; (1DMe)Y8Fa
For B7, the pKi [14] was 8.7, the pKi [2] was 8.55 and the pKi [15] was 8.5. The pKi [16] was 8.1, the pKi [17] was 8.8 and the pKi [1] was 9.72.
